{
  "source": "patent US6818221B2",
  "about": "“Adjuvants and processes to induce a specific type of immune response” (Baylor Research Institute, priority 2000, dated 2004)",
  "molecules": {"B1": {"name": "OVA: Chicken OVALBUMIN (Sigma) in PBS, depleted of the endotoxin activity; model soluble protein antigen (protein, UniProt P01012 2-386, looked up)", "Ovalbumin": "GSIGAASMEFCFDVFKELKVHHANENIFYCPIAIMSALAMVYLGAKDSTRTQINKVVRFDKLPGFGDSIEAQCGTSVNVHSSLRDILNQITKPNDVYSFSLASRLYAEERYPILPEYLQCVKELYRGGLEPINFQTAADQARELINSWVESQTNGIIRNVLQPSSVDSQTAMVLVNAIVFKGLWEKAFKDEDTQAMPFRVTEQESKPVQMMYQIGLFRVASMASEKMKILELPFASGTMSMLVLLPDEVSGLEQLESIINFEKLTEWTSSNVMEERKIKVYLPRMKMEEKYNLTSVLMAMGITDVFSSSANLSGISSAESLKISQAVHAAHAEINEAGREVVGSAEAGVDAASVSEEFRADHPFLFCIKHIATNAVLFFGRCVSP"}},
  "key": {"[1]": {"system": "OVA-specific CD8+ T cells", "test": "Cytokines produced in CD8+ T-cell cultures (ELISA)", "assay_type": "in vivo, mice", "conditions": "CD8+ OT-1 cells", "description": "(§1) Four days after injecting with OVA or OVA+LPS, 2.5×10^5 popliteal lymph node cells (footpad injections) or splenocytes (intraperitoneal injections) were plated in triplicate in 96-well flat bottomed plates (Costar, Cambridge, Mass.) in 200 μl of RPMI complete medium (GIBCO BRL, Grand Island, N.Y., US) supplemented with 5% fetal bovine serum (FBS), together with different concentrations (0-500 μg/mL of OVA, or OVA peptide (SIINFEKL, SEQ ID NO:1) (New England Peptide Incorporated, Fitchburg, Mass.). Proliferative responses were assessed after 72 hours of culture in a humidified atmosphere of 5% CO2 in air. Cultures were pulsed with 1.0 μCi [^3H] thymidine for 12 hours, and incorporation of the radionucleotide was measured by β-scintillation spectroscopy (Pulendran, B., et al. 1999. “Distinct dendritic cell subsets differentially regulate the class of immune response in vivo,” Proc Natl Acad Sci USA 96:1036-1041). For cytokine assays, aliquots of culture supernatants were removed after 72 hours, pooled, and assayed for the presence of IFNγ, IL-2, IL-4, IL-5, IL-10, and IL-13 by ELISA.\n(§2) IFNγ, IL-2, IL-10, IL-4, IL-5, IL-6, IL-12, IL-13 and TNFα were quantified by ELISA kits from Pharmingen (San Diego, Calif.) using manufacturer's instructions dated 2000.\nWe next examined the cytokines produced in CD8+ T-cell cultures by ELISA."}, "[2]": {"system": "OVA-specific CD4+ T cells", "test": "Cytokine production by antigen-specific T-helper cells in restimulated cultures (ELISA)", "assay_type": "in vivo, mice", "conditions": "CD4+ OT-2 system; culture supernatants after 72 hours OVA restimulation", "description": "as §1, §2\nCytokine production by antigen-specific T cells was measured by assaying the culture supernatants from the single cell suspensions of the draining lymph nodes described above for IL-2, IFNγ, IL-4, IL-10 and IL-5."}, "[3]": {"system": "OVA-specific CD4+ T cells", "test": "Clonal expansion of OVA-specific CD4+ T cells in vivo (OT-2 adoptive transfer, flow cytometry)", "parameters": "species or system mice", "conditions": "OVA with or without LPS adjuvant; footpad or intraperitoneal; Day 4", "source_text": "OT-2 TCR transgenic mice (strain 426-6), generated by Dr. W. Heath (Walter & Eliza Hall Institute, Melbourne, Australia) and Dr. F. Carbone (Monash University, Melbourne, Australia) were obtained from Dr. J. Kapp (Emory University, Atlanta). OT-1 TCR transgenic mice were purchased from Jackson Laboratory (Bar Harbor, Me.). C57BL/6 mice, B6.PL.THY1^a (B6.PL) mice, and C3H/HeJ mice were purchased from Jackson Laboratory (Bar Harbor, Me.). C3H/HeN mice were purchased from Harlan Sprague Dawley (Indianapolis, Ind.). All mice were kept in microisolator cages in a specific-pathogen free facility. For adoptive transfers, age matched, male C57BL/6 or B6.PL.THY1^a recipients were given 2.5×10^6 of either OT-2 cells or OT-1 TCR transgenic T cells intravenously.\nReconstituted mice (3-5 per group) were injected either intraperitoneally, or in the footpad, with either 2 mg OVA in saline, 2 mg OVA+25 μg E. coli LPS, or 2 mg OVA+25 μg P. gingivalis LPS. Endotoxin activity in saline was measured by LAL QCL-1000 kit, and observed to be below the detection limit. […]\nThe reconstituted mice were injected with one of the following compositions: soluble endotoxin-free OVA, E. coli LPS alone, P. gingivalis LPS alone, OVA+E. coli LPS, or OVA+P. gingivalis LPS. […] The CD4+ OVA-specific T cell response in either the draining lymph nodes or in the spleen was monitored by flow cytometry (FIG. 2A)."}, "[4]": {"system": "OVA-specific CD4+ T cells", "test": "IL-13 production by antigen-specific T cells in restimulated cultures (ELISA)", "assay_type": "in vivo, B6.PL.THY1a (B6.PL) mice", "conditions": "route not distinguished (intraperitoneally or subcutaneously)", "description": "B6.PL.THY1^a (B6.PL) mice reconstituted with OT-2 transgenic T cells were immunized with soluble OVA, E. coli LPS alone, P. gingivalis LPS alone, OVA+E. coli LPS, or OVA+P. gingivalis LPS, either subcutaneously in the footpad or intraperitoneally. Four days later, the draining popliteal lymph nodes (subcutaneous route), or spleens (intraperitoneal route) were removed, and single cell suspensions were restimulated with varying concentrations of OVA (0-500 μg/mL) for 72 hours, and pulsed with [^3H] for 12 hours. The cell populations were then assayed for IL-13 with ELISA. The data presented in FIG. 10 are representative of two independent experiments.\nFour days after injecting with OVA or OVA+LPS, 2.5×10^5 popliteal lymph node cells (footpad injections) or splenocytes (intraperitoneal injections) were plated in triplicate in 96-well flat bottomed plates (Costar, Cambridge, Mass.) in 200 μl of RPMI complete medium (GIBCO BRL, Grand Island, N.Y., US) supplemented with 5% fetal bovine serum (FBS), together with different concentrations (0-500 μg/mL of OVA, or OVA peptide (SIINFEKL, SEQ ID NO:1) (New England Peptide Incorporated, Fitchburg, Mass.). Proliferative responses were assessed after 72 hours of culture in a humidified atmosphere of 5% CO2 in air. […]"}},
  "data": [
    {"molecule": "B1", "values": [
      {"measurement": "IFNγ production", "setting": "[1]", "result": "did not secrete significant levels"},
      {"measurement": "IL-2 production", "setting": "[1]", "result": "did not secrete significant levels"},
      {"measurement": "IL-5 production", "setting": "[1]", "result": "did not secrete significant levels"},
      {"measurement": "IL-10 production", "setting": "[1]", "result": "did not secrete significant levels"},
      {"measurement": "IFNγ production", "setting": "[2]", "result": "little, if any"},
      {"measurement": "IL-2 production", "setting": "[2]", "result": "little, if any"},
      {"measurement": "IL-4 production", "setting": "[2]", "result": "little, if any"},
      {"measurement": "IL-5 production", "setting": "[2]", "result": "little, if any"},
      {"measurement": "IL-10 production", "setting": "[2]", "result": "little, if any"},
      {"measurement": "clonal expansion of OVA-specific CD4+ T cells", "setting": "[3]", "result": "significant clonal expansion"},
      {"measurement": "IL-13 production", "setting": "[4]", "result": "little, if any"}
    ]}
  ]
}
